{"source": "patent US20130209454A1", "about": "(CALIFORNIA INSTITUTE OF TECHNOLOGY, published 2013)", "test_in_all_cases": "cell-based or functional assay", "key": {"[1]": {"target": "HIV-1 strain CNE30 envelope (gp120) (HIV-1)"}, "[2]": {"target": "HIV-1 strain QH0692.42 envelope (gp120) (HIV-1)"}, "[3]": {"target": "HIV-1 strain P1981_C5_3 envelope (gp120) (HIV-1)"}, "[4]": {"target": "HIV-1 strain 3103.v3.c10 envelope (gp120) (HIV-1)"}, "[5]": {"target": "HIV-1 strain Ce0393_C3 envelope (gp120) (HIV-1)"}, "[6]": {"target": "HIV-1 strain 0815.v3.c3 envelope (gp120) (HIV-1)"}, "[7]": {"target": "HIV-1 strain 1006_11_C3_1601 envelope (gp120) (HIV-1)"}, "[8]": {"target": "HIV-1 strain CNE53 envelope (gp120) (HIV-1)"}, "[9]": {"target": "HIV-1 strain ZM197M.PB7 envelope (gp120) (HIV-1)"}, "[10]": {"target": "HIV-1 strain Q23.17 envelope (gp120) (HIV-1)"}, "[11]": {"target": "HIV-1 strain PVO.4 envelope (gp120) (HIV-1)"}, "[12]": {"target": "HIV-1 strain 3016.v5.c45 envelope (gp120) (HIV-1)"}, "[13]": {"target": "HIV-1 strain Q842.d12 envelope (gp120) (HIV-1)"}, "[14]": {"target": "HIV-1 strain C3347.c11 envelope (gp120) (HIV-1)"}, "[15]": {"target": "HIV-1 strain 231965.c01 envelope (gp120) (HIV-1)"}, "[16]": {"target": "HIV-1 strain Ce2060_G9 envelope (gp120) (HIV-1)"}, "[17]": {"target": "HIV-1 strain SC422661.8 envelope (gp120) (HIV-1)"}, "[18]": {"target": "HIV-1 strain CNE20 envelope (gp120) (HIV-1)"}, "[19]": {"target": "HIV-1 strain T255-34 envelope (gp120) (HIV-1)"}, "[20]": {"target": "HIV-1 strain THRO4156.18 envelope (gp120) (HIV-1)"}, "[21]": {"target": "HIV-1 strain REJO4541.67 envelope (gp120) (HIV-1)"}, "[22]": {"target": "HIV-1 strain 6545.v4.c1 envelope (gp120) (HIV-1)"}, "[23]": {"target": "HIV-1 strain 1054_07_TC4_1499 envelope (gp120) (HIV-1)"}, "[24]": {"target": "HIV-1 strain 3718.v3.c11 envelope (gp120) (HIV-1)"}, "[25]": {"target": "HIV-1 strain CNE58 envelope (gp120) (HIV-1)"}, "[26]": {"target": "HIV-1 strain T250-4 envelope (gp120) (HIV-1)"}, "[27]": {"target": "HIV-1 strain 211-9 envelope (gp120) (HIV-1)"}, "[28]": {"target": "HIV-1 strain ZM135M.PL10a envelope (gp120) (HIV-1)"}, "[29]": {"target": "HIV-1 strain CNE21 envelope (gp120) (HIV-1)"}, "[30]": {"target": "HIV-1 strain 3301.v1.c24 envelope (gp120) (HIV-1)"}, "[31]": {"target": "HIV-1 strain 6811.v7.c18 envelope (gp120) (HIV-1)"}, "[32]": {"target": "HIV-1 strain CNE17 envelope (gp120) (HIV-1)"}, "[33]": {"target": "HIV-1 strain R2184.04 envelope (gp120) (HIV-1)"}, "[34]": {"target": "HIV-1 strain Q461.e2 envelope (gp120) (HIV-1)"}, "[35]": {"target": "HIV-1 strain T251-18 envelope (gp120) (HIV-1)"}, "[36]": {"target": "HIV-1 strain ZM249M.PL1 envelope (gp120) (HIV-1)"}, "[37]": {"target": "HIV-1 strain P0402_c2_11 envelope (gp120) (HIV-1)"}, "[38]": {"target": "HIV-1 strain Q769.d22 envelope (gp120) (HIV-1)"}, "[39]": {"target": "HIV-1 strain C1080.c03 envelope (gp120) (HIV-1)"}, "[40]": {"target": "HIV-1 strain CAAN5342.A2 envelope (gp120) (HIV-1)"}, "[41]": {"target": "HIV-1 strain 62357_14_D3_4589 envelope (gp120) (HIV-1)"}, "[42]": {"target": "HIV-1 strain 6540.v4.c1 envelope (gp120) (HIV-1)"}}, "data": [{"binder": "NIH45-46 IgG (antibody, V domains shown) VH: QVRLSQSGGQMKKPGESMRLSCRASGYEFLNCPINWIRLAPGRRPEWMGWLKPRGGAVNYARKFQGRVTMTRDVYSDTAFLELRSLTSDDTAVYFCTRGKYCTARDYYNWDFEHWGRGAPVTVSS VL: EIVLTQSPATLSLSPGETAIISCRTSQSGSLAWYQQRPGQAPRLVIYSGSTRAAGIPDRFSGSRWGADYNLSISNLESGDFGVYYCQQYEFFGQGTKVQVDI", "values": [{"measurement": "neutralization IC80", "setting": "[1]", "result": 1.07, "unit": "µg/mL"}, {"measurement": "neutralization IC80", "setting": "[2]", "result": 1.71, "unit": "µg/mL"}, {"measurement": "neutralization IC80", "setting": "[3]", "result": 0.24, "unit": "µg/mL"}, {"measurement": "neutralization IC80", "setting": "[4]", "result": 6.15, "unit": "µg/mL"}, {"measurement": "neutralization IC80", "setting": "[5]", "result": 0.93, "unit": "µg/mL"}, {"measurement": "neutralization IC80", "setting": "[6]", "result": 0.052, "unit": "µg/mL"}, {"measurement": "neutralization IC80", "setting": "[7]", "result": 0.196, "unit": "µg/mL"}, {"measurement": "neutralization IC80", "setting": "[8]", "result": 0.039, "unit": "µg/mL"}, {"measurement": "neutralization IC80", "setting": "[9]", "result": 0.55, "unit": "µg/mL"}, {"measurement": "neutralization IC80", "setting": "[10]", "result": 0.5, "unit": "µg/mL"}, {"measurement": "neutralization IC80", "setting": "[11]", "result": 0.41, "unit": "µg/mL"}, {"measurement": "neutralization IC80", "setting": "[12]", "result": "> 50", "unit": "µg/mL"}, {"measurement": "neutralization IC80", "setting": "[13]", "result": 0.073, "unit": "µg/mL"}, {"measurement": "neutralization IC80", "setting": "[14]", "result": 0.094, "unit": "µg/mL"}, {"measurement": "neutralization IC80", "setting": "[15]", "result": 0.126, "unit": "µg/mL"}, {"measurement": "neutralization IC80", "setting": "[16]", "result": 0.29, "unit": "µg/mL"}, {"measurement": "neutralization IC80", "setting": "[17]", "result": 0.13, "unit": "µg/mL"}, {"measurement": "neutralization IC80", "setting": "[18]", "result": "> 50", "unit": "µg/mL"}, {"measurement": "neutralization IC80", "setting": "[19]", "result": 3.44, "unit": "µg/mL"}, {"measurement": "neutralization IC80", "setting": "[20]", "result": 8.22, "unit": "µg/mL"}, {"measurement": "neutralization IC80", "setting": "[21]", "result": 0.035, "unit": "µg/mL"}, {"measurement": "neutralization IC80", "setting": "[22]", "result": "> 50", "unit": "µg/mL"}, {"measurement": "neutralization IC80", "setting": "[23]", "result": 0.404, "unit": "µg/mL"}, {"measurement": "neutralization IC80", "setting": "[24]", "result": "> 50", "unit": "µg/mL"}, {"measurement": "neutralization IC80", "setting": "[25]", "result": 2.08, "unit": "µg/mL"}, {"measurement": "neutralization IC80", "setting": "[26]", "result": "> 50", "unit": "µg/mL"}, {"measurement": "neutralization IC80", "setting": "[27]", "result": "> 50", "unit": "µg/mL"}, {"measurement": "neutralization IC80", "setting": "[28]", "result": 2.79, "unit": "µg/mL"}, {"measurement": "neutralization IC80", "setting": "[29]", "result": 38.1, "unit": "µg/mL"}, {"measurement": "neutralization IC80", "setting": "[30]", "result": 0.033, "unit": "µg/mL"}, {"measurement": "neutralization IC80", "setting": "[31]", "result": 0.113, "unit": "µg/mL"}, {"measurement": "neutralization IC80", "setting": "[32]", "result": 0.734, "unit": "µg/mL"}, {"measurement": "neutralization IC80", "setting": "[33]", "result": 0.127, "unit": "µg/mL"}, {"measurement": "neutralization IC80", "setting": "[34]", "result": 0.291, "unit": "µg/mL"}, {"measurement": "neutralization IC80", "setting": "[35]", "result": 3.68, "unit": "µg/mL"}, {"measurement": "neutralization IC80", "setting": "[36]", "result": 0.053, "unit": "µg/mL"}, {"measurement": "neutralization IC80", "setting": "[37]", "result": 0.214, "unit": "µg/mL"}, {"measurement": "neutralization IC80", "setting": "[38]", "result": 0.033, "unit": "µg/mL"}, {"measurement": "neutralization IC80", "setting": "[39]", "result": 11.6, "unit": "µg/mL"}, {"measurement": "neutralization IC80", "setting": "[40]", "result": 0.4, "unit": "µg/mL"}, {"measurement": "neutralization IC80", "setting": "[41]", "result": 0.19, "unit": "µg/mL"}, {"measurement": "neutralization IC80", "setting": "[42]", "result": "> 50", "unit": "µg/mL"}]}]}
